The source of these data is PMC10582422, “Alzheimer's Progenitor Amyloid‐β Targets and Dissolves Microbial Amyloids and Impairs Biofilm Function” (Advanced Science, 2023).

Series [1] has as its system FapC fibrils. As to the kind of experiment: ThT assay: disintegration of preformed FapC fibrils. As to conditions: 1.8 – 15 µM against 50 µM FapC; ThT 72 h. It is filed as biochemical, P. aeruginosa. Here is the method:
FapC and CsgA fibrils were pre‐incubated with 50 µM of Thioflavin T dye for 3 h. […] The instrument was set to agitate the plate for 5 s before every reading. […]

Series [2] deals with FapC fibrils. As to the kind of experiment: TEM of FapC fibrils incubated with peptide. As to conditions: TEM at 1, 2 and 3 weeks. It counts as biochemical, P. aeruginosa. From the text:
The samples were blotted with filter paper and grids were blotted twice with deionized water and then a drop of 1% uranyl acetate was placed on the grids for 30 s for negative staining. […] […] TEM grids were imaged with a Hitachi HT7700 TEM operating at 120 kV.

Series [3] has as its target T1, CsgA fibrils (Escherichia coli, UniProt P28307).
T1 construct: made in house; host or cells: E. coli
It is filed as biochemical, E. coli. Here is the method: (§1) The percentage secondary structure was calculated by the CD data via Dichroweb analysis with parameters of Contin/reference set 4.

Another series is described as follows: Zeta potential. It counts as physicochemical. As to conditions: Malvern Zetasizer Nano; fibrils.
In series [4] the target is T1, CsgA fibrils. It is filed as biochemical, E. coli. As to conditions: DLS, incubated without Aβ, as for TEM; n = 3. The procedure:
(§2) Quartz cells with low volume capacity (100 µL) were used and measurements were performed using a Malvern Zetasizer Nano Series running DTS software and using a 4 mW He−Ne laser operating at a wavelength of 633 nm and equipped with an avalanche photodiode (APD) detector. The scattered light was detected at an angle of 173°.

Another series has as its system Caco‐2 cells. As to the kind of experiment: Cell adhesion of FapC and CsgA amyloids to Caco-2 cells. It is filed as cell-based. As to conditions: Alexa647-labelled, 10 µM, 24 h. The procedure:
In comparison, FapC or CsgA amyloids alone (10 µM), labelled with Alexa647, were incubated with the cells under the same conditions. […] The cells were incubated for additional 24 h. All the cells in this experiment were fixed in 4% PFA, washed with PBS and then subjected to confocal imaging as described above. The size and number of the FapC or CsgA amyloids attached to the membrane of Caco‐2 cells were quantified from the images using Fiji ImageJ software.

Another series has as its system Aβ. As to conditions: cited from earlier work. From the text:
Amyloid‐β (Aβ) is a peptide generated from the proteolytic cleavage of amyloid precursor protein (APP) expressed on the membrane and synapses of neurons. Based on the combination of enzymes that cleave APP, i.e., α‐, β‐ or γ‐secretase, the resulting Aβ can be a 40 (Aβ40) or 42 (Aβ42) residue peptide that is intrinsically disordered in structure.^[ [1] ^] Different environmental factors, familial mutations or localized concentrations of Aβ can trigger the aggregation of Aβ into oligomers. The oligomers can subsequently assemble into long twisted fibrils characterized by a so‐called amyloid fold ...

In a further series the test system is P. aeruginosa PAO1. Kind of series: Antimicrobial sensitivity assay (MBEC peg biofilm), PAO1. It counts as cell-based. As to conditions: combined with Pen. The procedure:
(§3) Microbial culture of K12 and PAO1 were added to 96‐well plates at OD 0.3 and incubated overnight at the static condition at 37 °C with Minimum Biofilm Eradication Concentration (MBEC) peg lids (Innovotech, Edmonton, Canada) where biofilms were formed on the pegs. […] After overnight incubation in the challenge plate, peg lids were removed, and swabs of the culture were picked from the pegs and streaked onto LB agar plates. The plates were incubated overnight at 37 °C and surviving colonies were confirmed by visual inspection and counted with the software Promega Colony Counter.

A further series relates to E. coli K‐12. Kind of series: Antimicrobial sensitivity assay (MBEC peg biofilm), K-12. As to conditions: combined with Pen. It counts as cell-based. The procedure:
as §3

For series [5], the system named is FapC fibrils. As to the kind of experiment: DLS size of FapC fibrils. It is filed as biochemical, P. aeruginosa. As to conditions: incubated without Aβ, as for TEM, n = 3. Here is the method:
as §2

Series [6] has as its system FapC fibrils. Kind of series: CD spectroscopy of FapC fibrils. It is filed as biochemical, P. aeruginosa. Here is the method:
as §1

In a further series the test system is FapC monomers. As to the kind of experiment: Self-seeding / fibrillization of FapC monomers (ThT, TEM). It counts as biochemical, P. aeruginosa. As to conditions: FapC monomers 15 µM.
[7] abbreviates: CD, Dichroweb Contin/reference set 4, 50 µM.

T1 sequence (P28307 21-151): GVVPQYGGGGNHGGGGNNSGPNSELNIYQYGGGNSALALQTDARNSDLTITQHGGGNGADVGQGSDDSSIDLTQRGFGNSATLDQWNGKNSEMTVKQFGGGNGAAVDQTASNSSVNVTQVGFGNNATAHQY

Consider “IAPP: human islet amyloid polypeptide (KCNTATCATQRLANFLVHSSNNFGAILSSTNVGSNTY; Islet amyloid polypeptide; UniProt P10997 34-70, looked up)”, for which the “disintegration of FapC amyloids by IAPP or aSyn” value with FapC fibrils [1] is reported as “did not show any disintegration of FapC amyloids”. In addition, the “TEM remodeling of FapC fibrils by IAPP or aSyn monomers” value in the series with FapC fibrils [2] is listed as “no remodeling effect was observed for FapC fibrils”.
“CsgA: CsgA prepared recombinantly in E. coli; major subunit of the curli protein”: in the series with CsgA fibrils [3] (50 µM CsgA without Aβ, 48 h), the “CD negative peak, CsgA fibrils alone” value came out at 214 nm. In addition, the “β‐sheet content of CsgA fibrils, without Aβ” value in the series with CsgA fibrils [3] (setting [7]) is given as 42%. Further, the zeta potential in “Zeta potential” was 37 mV. Besides, the “hydrodynamic radius of CsgA fibrils, without Aβ” value with CsgA fibrils [4] is on record as “≈ 1500 nm”. In the series on Caco‐2 cells, the “size of amyloid aggregates attached to Caco-2 membrane, without Aβ” value is reported as “≈ 30 µm”.
For “Solanezumab: monoclonal antibody in clinical trials”, the “efficacy in phase 3 trials” value with Aβ (mild form of Alzheimer's disease, ref [6], [7]) was “some efficacy but not much promise in phase 3 trials”.
Consider `[H]/N=C(/N)N[C@H]1[C@H](O)[C@@H](O)[C@H](O[C@@H]2O[C@@H](C)[C@](O)(C=O)[C@H]2O[C@@H]2O[C@@H](CO)[C@H](O)[C@@H](O)[C@@H]2NC)[C@@H](N/C(N)=N\[H])[C@@H]1O` [Strep], for which the “minimum concentration with slight antimicrobial effect (Strep), PAO1” value in the series on P. aeruginosa PAO1 came out at 5e-06 µg/mL. Besides, the “minimum concentration with slight antimicrobial effect (Strep), K-12” value with E. coli K‐12 amounted to 5e-06 µg/mL.

B1: FapC: FapC prepared recombinantly in E. coli; amyloid protein secreted by P. aeruginosa (protein, UniProt Q9I2F0 25-340, looked up)
Functional amyloid subunit …: GNEGGWHPPKPNPQSNNKGGATALVVDTQQNYNNKVSNFGTLNNASVSGSIKDASGNVGVNVAAGDNNQQANAAALASADASFVFGTATASTSVLQSGYGNTLNNYSNPNTASLSNSANNVSGNLGVNVAAGNFNQQKNDLAAAVSNGQYSTAGSAASQTSTGNTTVNSANYAYGGTYVSLKLNADGSYKGTSDQIGDVYLDTWEGQTHPGGSNTGHIDVDSQAQGAKDLNHDGGAFAFKEKGDVDLKGTVSGFIPAIVGFKTPVTNNASLSNSLQNVSGNVGVNIAAGGGNQQSNSLSIAAGCSSCPAGGESLGF
In the series “Zeta potential”, B1 displayed a zeta potential of 47 mV. Besides, in the series with FapC fibrils [5], the “hydrodynamic radius of FapC fibrils, without Aβ” value is given as “≈ 550 nm”. Also, the “size of amyloid aggregates attached to Caco-2 membrane, without Aβ” value with Caco‐2 cells was “≈ 30 µm”. Besides, in the series with FapC fibrils [6] (50 µM FapC without Aβ, 48 h), the “CD negative peak, FapC fibrils alone” value was 214 nm. For the same molecule, in the series with FapC fibrils [6] (setting [7]), the “random coil content of FapC fibrils, without Aβ” value is reported as 22% and the “β‐sheet content of FapC fibrils, without Aβ” value amounted to 47%.

B2: sonicated FapC: Sonicated FapC seeds used as control (protein, UniProt Q9I2F0 25-340, looked up)
Functional amyloid subunit …: B1 Functional amyloid subunit …
modifications: sonicated fibril seeds
notes: Sonicated FapC seeds used as control
In the case of B2, the “self-seeding of FapC monomers by sonicated seeds” value in the series on FapC monomers is “a significant increase in ThT kinetics was observed”.

B3: Lecanemab: humanized IgG1 monoclonal antibody that binds with soluble protofibrils of Aβ (antibody, chains of the INN, looked up, V domains shown)
VH: EVQLVESGGGLVQPGGSLRLSCSASGFTFSSFGMHWVRQAPGKGLEWVAYISSGSSTIYYGDTVKGRFTISRDNAKNSLFLQMSSLRAEDTAVYYCAREGGYYYGRSYYTMDYWGQGTTVTVSS
VL: DVVMTQSPLSLPVTPGAPASISCRSSQSIVHSNGNTYLEWYLQKPGQSPKLLIYKVSNRFSGVPDRFSGSGSGTDFTLRISRVEAEDVGIYYCFQGSHVPPTFGPGTKLEIK
For the molecule B3, the “efficacy in phase 2 clinical trials” value in the series with Aβ (early onset Alzheimer's disease, ref [8]) was “limited improvement in cognition and reduced Aβ burden”.
